Our source for the Km values is ChEMBL document CHEMBL1140936, “Topological polar surface area defines substrate transport by multidrug resistance associated protein 1 (MRP1/ABCC1)” (J Med Chem, 2009).

Substrate in the data set “not read”: N[C@@H](CCC(=O)N[C@@H](CS)C(=O)NCC(=O)O)C(=O)O
Description: not read.

Substrate in data set [1]: N[C@@H](CCC(=O)N[C@@H](CSSC[C@H](NC(=O)CC[C@H](N)C(=O)O)C(=O)NCC(=O)O)C(=O)NCC(=O)O)C(=O)O
Description: Activity of MRP1.

B1: Multidrug resistance-associated protein 1 (Homo sapiens) (protein)
chain: MALRGFCSADGSDPLWDWNVTWNTSNPDFTKCFQNTVLVWVPCFYLWACFPFYFLYLSRHDRGYIQMTPLNKTKTALGFLLWIVCWADLFYSFWERSRGIFLAPVFLVSPTLLGITMLLATFLIQLERRKGVQSSGIMLTFWLVALVCALAILRSKIMTALKEDAQVDLFRDITFYVYFSLLLIQLVLSCFSDRSPLFSETIHDPNPCPESSASFLSRITFWWITGLIVRGYRQPLEGSDLWSLNKEDTSEQVVPVLVKNWKKECAKTRKQPVKVVYSSKDPAQPKESSKVDANEEVEALIVKSPQKEWNPSLFKVLYKTFGPYFLMSFFFKAIHDLMMFSGPQILKLLIKFVNDTKAPDWQGYFYTVLLFVTACLQTLVLHQYFHICFVSGMRIKTAVIGAVYRKALVITNSARKSSTVGEIVNLMSVDAQRFMDLATYINMIWSAPLQVILALYLLWLNLGPSVLAGVAVMVLMVPVNAVMAMKTKTYQVAHMKSKDNRIKLMNEILNGIKVLKLYAWELAFKDKVLAIRQEELKVLKKSAYLSAVGTFTWVCTPFLVALCTFAVYVTIDENNILDAQTAFVSLALFNILRFPLNILPMVISSIVQASVSLKRLRIFLSHEELEPDSIERRPVKDGGGTNSITVRNATFTWARSDPPTLNGITFSIPEGALVAVVGQVGCGKSSLLSALLAEMDKVEGHVAIKGSVAYVPQQAWIQNDSLRENILFGCQLEEPYYRSVIQACALLPDLEILPSGDRTEIGEKGVNLSGGQKQRVSLARAVYSNADIYLFDDPLSAVDAHVGKHIFENVIGPKGMLKNKTRILVTHSMSYLPQVDVIIVMSGGKISEMGSYQELLARDGAFAEFLRTYASTEQEQDAEENGVTGVSGPGKEAKQMENGMLVTDSAGKQLQRQLSSSSSYSGDISRHHNSTAELQKAEAKKEETWKLMEADKAQTGQVKLSVYWDYMKAIGLFISFLSIFLFMCNHVSALASNYWLSLWTDDPIVNGTQEHTKVRLSVYGALGISQGIAVFGYSMAVSIGGILASRCLHVDLLHSILRSPMSFFERTPSGNLVNRFSKELDTVDSMIPEVIKMFMGSLFNVIGACIVILLATPIAAIIIPPLGLIYFFVQRFYVASSRQLKRLESVSRSPVYSHFNETLLGVSVIRAFEEQERFIHQSDLKVDENQKAYYPSIVANRWLAVRLECVGNCIVLFAALFAVISRHSLSAGLVGLSVSYSLQVTTYLNWLVRMSSEMETNIVAVERLKEYSETEKEAPWQIQETAPPSSWPQVGRVEFRNYCLRYREDLDFVLRHINVTINGGEKVGIVGRTGAGKSSLTLGLFRINESAEGEIIIDGINIAKIGLHDLRFKITIIPQDPVLFSGSLRMNLDPFSQYSDEEVWTSLELAHLKDFVSALPDKLDHECAEGGENLSVGQRQLVCLARALLRKTKILVLDEATAAVDLETDDLIQSTIRTQFEDCTVLTIAHRLNTIMDYTRVIVLDKGEIQEYGAPSDLLQQRGLFYSMAKDAGLV
Regarding B1, the Michaelis constant (Km) – broadly, the substrate concentration at which the rate is half of its maximum – in “not read” came to 5 mM; in data set [1], 93 µM.
